T1: Epl1 (residues 51–380, EPcA domain) of Piccolo v07 (S. cerevisiae, UniProt P43572 51-380)
T1 sequence: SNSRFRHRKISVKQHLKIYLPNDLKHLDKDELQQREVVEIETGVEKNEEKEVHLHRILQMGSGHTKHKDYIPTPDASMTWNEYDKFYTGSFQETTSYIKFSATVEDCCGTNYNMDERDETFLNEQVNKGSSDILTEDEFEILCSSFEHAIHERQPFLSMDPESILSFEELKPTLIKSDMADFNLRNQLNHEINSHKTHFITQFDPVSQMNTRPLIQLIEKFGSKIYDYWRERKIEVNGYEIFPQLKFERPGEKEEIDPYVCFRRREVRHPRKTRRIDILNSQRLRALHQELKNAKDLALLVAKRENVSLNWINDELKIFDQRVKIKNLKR


Experiments:
[1] = biological target: recombinant nucleosome core particle formed from full-length Xenopus recombinant histones and mouse (Xenopus); test: negative-stain EM of single particles
[2] = biological target: T1, Epl1 (residues 51–380, EPcA domain) of …; test: AUC

stoichiometry N [2]	Molecule	percent of NuA4 particles bound to NCP [1] [%]	stoichiometry N [1]
	NuA4 histone acetyltransferase complex (from UniProt P43572;Q08649;P38806;Q06337;P38811;Q12432;P39995;P53911;P53201;P53930;P60010;P80428;P47128)	5	1
1	Esa1 (residues 2–445), 6 × His-tagged, of Piccolo v07 (enzyme) SHDGKEEPGIAKKINSVDDIIIKCQCWVQKNDEERLAEILSINTRKAPPKFYVHYVNYNKRLDEWITTDRINLDKEVLYPKLKATDEDNKKQKKKKATNTSETPQDSLQDGVDGFSRENTDVMDLDNLNVQGIKDENISHEDEIKKLRTSGSMTQNPHEVARVRNLNRIIMGKYEIEPWYFSPYPIELTDEDFIYIDDFTLQYFGSKKQYERYRKKCTLRHPPGNEIYRDDYVSFFEIDGRKQRTWCRNLCLLSKLFLDHKTLYYDVDPFLFYCMTRRDELGHHLVGYFSKEKESADGYNVACILTLPQYQRMGYGKLLIEFSYELSKKENKVGSPEKPLSDLGLLSYRAYWSDTLITLLVEHQKEITIDEISSMTSMTTTDILHTAKTLNILRYYKGQHIIFLNEDILDRYNRLKAKKRRTIDPNRLIWKPPVFTASQLRFAW		
1	Yng2 (residues 2–218, without PHD domain) of Piccolo v07 (domain or fragment) DPSLVLEQTIQDVSNLPSEFRYLLEEIGSNDLKLIEEKKKYEQKESQIHKFIRQQGSIPKHPQEDGLDKEIKESLLKCQSLQREKCVLANTALFLIARHLNKLEKNIALLEEDGVLAPVEEDGDMDSAAEASRESSVVSNSSVKKRRAASSSGSVPPTLKKKKTSRTSKLQNEIDVSSREKSVTPVSPSIEKKIARTKEFKNSRNGKGQNGSPENEE		

— PMC3210417 (Nature structural & molecular biology, 2011)
